“Also recorded” adds a separate entry of the source.
Legend:
[1] = biological target: T1, GFP-tagged LRRK2 (Homo sapiens, UniProt Q5S007); experiment: Localization of GFP-tagged LRRK2 by confocal microscopy; type: cell-based; settings: HEK293 cells, 10 μM peptide, 12 h
T1 construct: co-transfecting HEK293 cells with GFP-tagged and strep-tagged full-length LRRK2; expressed in transfected cells; host or cells: HEK293
Excerpt: Next, we analyzed the effects of these inhibitor peptides on LRRK2 localization.

[2] = biological target: T2, LRRK2 dimerization (Homo sapiens, UniProt Q5S007); experiment: In vitro dimerization assay (co-immunoprecipitation of GFP- and Strep-tagged LRRK2); type: biochemical; settings: 10 μM peptide overnight, HEK293 lysates
T2 construct: co-transfecting HEK293 cells with GFP-tagged and strep-tagged full-length LRRK2; expressed in transfected cells; host or cells: HEK293
Protocol: In vitro dimerization assay. HEK293 cells were co-transfected using JetPEI reagent (Polyplus transfection) with pcDNA3.1_GFP.LRRK2 and pDEST(N)SF.LRRK2. Cells were cultivated for 48 hours. The cells were then lysed with 200 μL ice-cold lysis buffer (10 mM Tris/HCl pH 7.5; 150 mM NaCl; 0.5 mM EDTA; 0.5% NP-40), complete EDTA-free protease inhibitor cocktail (Sigma-Aldrich Cat #11836170001) and Protease Inhibitor Cocktail, Sigma (cat. no. P-2714). The mixture was incubated and rotated on ice for 30 minutes with extensively pipetting every 10 minutes. Lysate was cleared by centrifugation for 10 min at 14000 g for 10 min at 4° C. The supernatant was transferred to a precooled tube and 300 μL dilution buffer (same as lysis buffer without NP-40) was added to the lysate. Peptides were added to a final concentration of 10 μM and the mixture was allowed to rotate at 4° C. overnight. GFP-LRRK2 was immunoprecipitated with Magnetic GFP nanotrap beads (ChromoTek). […] The membranes were coated with enhanced chemiluminescent (ECL) reagent (WesternSure PREMIUM, Li-COR biosciences), and proteins were detected by C-Digit Imaging System (Li-COR Biosciences).
To determine whether LCIP1 and LRIP4 could effectively disrupt LRRK2 dimerization, we monitored disruption of dimerization using two different tagged versions of LRRK2. […]

[3] = system: RAW 264.7 cells; experiment: ROS production assay (CellROX, zymosan); type: cell-based; settings: 10 μM peptide 9 hours, then Zymosan 50 μg/mL 30 mins
Protocol: ROS production assay. Flow cytometry was used to measure reactive oxygen species (ROS) through fluorescence emission of the CellROX deep red dye (Life Technologies). RAW264.7 cells (ATCC® SC-6003™) were plated at 120,000/well in a 96-well low-adherence tissue culture plate (Costar).

[4] = system: HEK293 cells
Protocol: Flow Cytometry. HEK293 cells were plated in 96-well plates (50 000/well) and allowed to grow 24 h in complete growth medium (DMEM supplemented with 10% fetal bovine serum, L-glutamine). DMEM was carefully aspirated and cells were treated with fresh pre-warmed complete growth medium supplemented with 10 μM of peptide or DMSO. After 6 hours, cells were analyzed on Beckman Cytoflex flow cytometer (Beckman Coulter). Using forward and side scattered light, a gate for intact, non-aggregated cells was defined and the fluorescence of 10,000 events was collected within this cell gate. The fluorescent channel for FITC (488-nm excitation [ex], 525-nm emission [em]) was used. Data was analyzed using FlowJo software and the reported fluorescent intensity values represent arithmetic means of the results determined for the analyzed cells.

[5] = system: primary cortical neurons overexpressing G2019S-LRRK2; experiment: Neuronal apoptosis in primary cortical neurons expressing G2019S-LRRK2; type: cell-based, mouse; settings: 10 μM peptide, 48 h
Excerpt: Preparation of primary mouse neuronal cultures, and assessment of neuronal death. Embryonic day 16 (E16) pregnant C57BL mice were used in this study, with primary cortical neurons prepared as described (N. Antoniou et al., A motif within the armadillo repeat of Parkinson's-linked LRRK2 interacts with FADD to hijack the extrinsic death pathway. Sci Rep 8, 3455 (2018)). Briefly, under aseptic conditions, cortices were removed and cut into small pieces before enzymatic digestion (trypsin 0.05% and 100 μg/ml DNAse) and mechanical dissociation. Cells were centrifuged and counted and plated at a density of 150,000/cm^2 in BrainPhys neuronal culture medium (StemCell Technologies) supplemented with SM1 Neuronal Supplement (StemCell Technologies), L-glutamine (0.5 mM) and penicillin/[…]. After 3-4 DIV, neurons were transfected using Lipofectamine 2000 (Thermo Scientific) as per the manufacturer's instructions. Neurons were transfected with Flag-tagged WT or mutant (G2019S) human LRRK2 (as described previously). The following day, the treatment of neurons with fluorescently labeled peptides (at 10 μM final concentration) was initiated. The peptides were replenished in the neuronal medium after 24 hours, and the indicated concentrations. […] For quantification of apoptotic neuronal profiles, the approach described previously was used.

T2 sequence (Q5S007 whole entry): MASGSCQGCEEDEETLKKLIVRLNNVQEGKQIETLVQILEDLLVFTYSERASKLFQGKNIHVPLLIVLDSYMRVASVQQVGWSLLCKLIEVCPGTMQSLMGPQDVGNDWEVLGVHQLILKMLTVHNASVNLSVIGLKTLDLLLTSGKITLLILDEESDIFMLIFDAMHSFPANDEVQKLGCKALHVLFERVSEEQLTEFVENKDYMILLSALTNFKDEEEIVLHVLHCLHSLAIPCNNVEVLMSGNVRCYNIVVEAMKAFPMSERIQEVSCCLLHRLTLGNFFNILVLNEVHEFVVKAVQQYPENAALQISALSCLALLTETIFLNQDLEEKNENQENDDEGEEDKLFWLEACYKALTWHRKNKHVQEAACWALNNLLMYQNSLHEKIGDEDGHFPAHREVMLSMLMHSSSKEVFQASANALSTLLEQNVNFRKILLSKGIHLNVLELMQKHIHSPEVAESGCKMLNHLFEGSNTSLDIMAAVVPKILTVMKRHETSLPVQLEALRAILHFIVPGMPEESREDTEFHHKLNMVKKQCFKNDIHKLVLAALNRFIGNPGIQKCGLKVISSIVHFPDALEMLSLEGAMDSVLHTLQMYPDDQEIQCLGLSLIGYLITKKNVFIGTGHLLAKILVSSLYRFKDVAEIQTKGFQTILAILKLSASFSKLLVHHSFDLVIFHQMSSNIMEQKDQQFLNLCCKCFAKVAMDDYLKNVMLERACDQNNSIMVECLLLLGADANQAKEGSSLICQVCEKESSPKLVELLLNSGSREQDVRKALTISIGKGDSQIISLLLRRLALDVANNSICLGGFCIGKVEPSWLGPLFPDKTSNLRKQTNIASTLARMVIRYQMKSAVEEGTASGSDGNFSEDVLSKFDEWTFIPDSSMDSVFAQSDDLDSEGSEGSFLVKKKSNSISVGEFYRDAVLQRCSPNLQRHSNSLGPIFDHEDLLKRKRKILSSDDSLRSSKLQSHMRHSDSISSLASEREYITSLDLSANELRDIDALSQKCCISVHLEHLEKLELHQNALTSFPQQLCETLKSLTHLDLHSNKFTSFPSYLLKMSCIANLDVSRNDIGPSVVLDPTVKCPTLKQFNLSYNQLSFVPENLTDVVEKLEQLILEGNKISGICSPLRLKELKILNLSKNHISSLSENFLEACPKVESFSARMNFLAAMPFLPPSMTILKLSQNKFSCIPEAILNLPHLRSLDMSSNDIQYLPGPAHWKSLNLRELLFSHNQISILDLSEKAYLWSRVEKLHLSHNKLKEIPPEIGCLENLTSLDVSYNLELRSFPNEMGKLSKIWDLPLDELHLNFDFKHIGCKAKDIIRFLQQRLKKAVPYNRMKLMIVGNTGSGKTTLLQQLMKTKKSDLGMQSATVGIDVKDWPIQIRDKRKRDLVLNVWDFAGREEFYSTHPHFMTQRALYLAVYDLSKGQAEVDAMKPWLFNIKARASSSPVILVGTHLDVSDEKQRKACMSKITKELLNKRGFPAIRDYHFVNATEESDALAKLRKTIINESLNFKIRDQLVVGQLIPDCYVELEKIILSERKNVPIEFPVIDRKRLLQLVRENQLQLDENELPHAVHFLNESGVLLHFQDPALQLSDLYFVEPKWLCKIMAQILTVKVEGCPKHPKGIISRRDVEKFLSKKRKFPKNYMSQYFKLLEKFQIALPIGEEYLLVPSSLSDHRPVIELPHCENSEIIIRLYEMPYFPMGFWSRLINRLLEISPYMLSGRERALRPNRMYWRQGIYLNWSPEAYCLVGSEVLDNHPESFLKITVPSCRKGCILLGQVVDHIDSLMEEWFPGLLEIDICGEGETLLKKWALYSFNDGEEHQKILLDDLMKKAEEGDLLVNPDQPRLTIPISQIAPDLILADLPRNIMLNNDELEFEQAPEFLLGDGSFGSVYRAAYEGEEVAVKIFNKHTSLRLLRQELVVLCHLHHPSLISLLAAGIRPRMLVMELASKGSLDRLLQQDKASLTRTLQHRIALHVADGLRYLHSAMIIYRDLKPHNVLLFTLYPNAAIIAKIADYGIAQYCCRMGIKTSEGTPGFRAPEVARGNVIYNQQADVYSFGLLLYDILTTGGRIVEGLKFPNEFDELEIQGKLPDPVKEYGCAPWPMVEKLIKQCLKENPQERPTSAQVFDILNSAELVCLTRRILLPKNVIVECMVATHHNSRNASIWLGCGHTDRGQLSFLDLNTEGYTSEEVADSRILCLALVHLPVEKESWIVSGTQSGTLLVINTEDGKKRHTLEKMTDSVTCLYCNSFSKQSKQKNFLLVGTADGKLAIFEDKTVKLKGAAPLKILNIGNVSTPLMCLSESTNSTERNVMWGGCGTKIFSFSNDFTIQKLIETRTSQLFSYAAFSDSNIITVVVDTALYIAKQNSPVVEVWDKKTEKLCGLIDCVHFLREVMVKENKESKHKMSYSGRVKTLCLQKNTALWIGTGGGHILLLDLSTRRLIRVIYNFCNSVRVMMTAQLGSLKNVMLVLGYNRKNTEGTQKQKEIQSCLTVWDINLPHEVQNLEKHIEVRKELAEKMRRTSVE
T1 sequence (Q5S007 whole entry): as above

Row | Substance | LRRK2 localization after peptide treatment [1] | LRRK2 dimerization (Strep-LRRK2 co-precipitated with GFP-LRRK2) [2] | zymosan induced ROS production [3] | dose dependence of cell uptake by flow cytometry [4] | neurons undergoing apoptosis [5]
1 | Roc-domain stapled peptide formed from SEQ ID NO. 6 DEKQRKAC(Nle)SKITKEXLNKX, X = (S)-2-(4′-pentenyl)alanine; PEG3 linker, FAM or biotin label (DEKQRKACXSKITKEXLNKX; hydrocarbon staple; Nle; PEG3 linker; FAM or biotin; ROC domain petide; (9)..(9) Xaa is norleucine; (16)..(16) Xaa is (S)-2-(4′-pentenyl)alanine; (20)..(20) Xaa is (S)-2-(4′-pentenyl)alanine) [LRIP4] | LRRK2 maintained its cytoplasmic distribution; also recorded: did not induce mislocalization of LRRK2 | reduced the co-immunoprecipitation of the two LRRK2 proteins; also recorded: able to disrupt LRRK2 dimerization with LRIP4 having the most pronounced effect; also recorded: reduced dimerization; also recorded: inhibitory effect on LRRK2 | significant reduction of zymosan induced ROS production to an extent comparable to MLi-2 | dose-dependent uptake | sharp decline in neurons undergoing apoptosis, especially for LRIP4 treated cells
2 | COR-domain stapled peptide formed from SEQ ID NO. 16 KGEGEXLLKXWK, X = (S)-2-(4′-pentenyl)alanine; PEG3 linker, FAM or biotin label (hydrocarbon staple; PEG3 linker; FAM or biotin; COR domain peptide; (6)..(6) Xaa is (S)-2-(4′-pentenyl)alanine; (10)..(10) Xaa is (S)-2-(4′-pentenyl)alanine) [LCIP1] | LRRK2 maintained its cytoplasmic distribution; also recorded: did not induce mislocalization of LRRK2 | reduced the co-immunoprecipitation of the two LRRK2 proteins; also recorded: able to disrupt LRRK2 dimerization; also recorded: reduced dimerization; also recorded: inhibitory effect on LRRK2 | no statistically significant consequence | dose-dependent uptake | sharp decline in neurons undergoing apoptosis
